Patent US20150147337A1 (Merck Sharp & Dohme, published 2015)
“And” between values parts separate entries of the source, which are not always exact repeats. Identical values can stand only once.

Molecular target: T1, Human IL-23 (human, UniProt P29460 23-328)
T1 construct: also called huIL-23
T1 sequence 1: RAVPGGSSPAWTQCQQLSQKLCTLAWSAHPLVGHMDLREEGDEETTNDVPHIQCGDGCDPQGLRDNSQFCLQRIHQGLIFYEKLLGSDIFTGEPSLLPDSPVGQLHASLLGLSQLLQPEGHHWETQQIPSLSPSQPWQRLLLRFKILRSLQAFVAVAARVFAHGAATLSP
T1 sequence 2: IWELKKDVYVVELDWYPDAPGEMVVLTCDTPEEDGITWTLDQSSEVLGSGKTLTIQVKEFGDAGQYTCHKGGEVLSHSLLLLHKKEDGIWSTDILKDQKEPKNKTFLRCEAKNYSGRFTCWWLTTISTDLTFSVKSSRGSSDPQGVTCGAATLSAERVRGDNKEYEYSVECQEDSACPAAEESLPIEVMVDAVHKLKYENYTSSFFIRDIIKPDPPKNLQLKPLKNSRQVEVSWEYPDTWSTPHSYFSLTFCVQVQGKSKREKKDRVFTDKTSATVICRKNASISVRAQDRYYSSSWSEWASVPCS
Assay: ELISA, human IL-23 immobilized on plate, HRP anti-IgG detection, four-parameter fit
Procedure: Re-dissolved crystalline anti-huIL-23p19 mAb 13B8-b was also compared to the original solution antibody by ELISA. Two different lots of each of solution and re-dissolved crystalline anti-huIL-23p19 mAb 13B8-b were tested for their ability to bind to IL-23. Human IL-23 was immobilized onto an ELISA plate, and serial dilutions of anti-huIL-23p19 mAb 13B8-b (solution or re-dissolved crystalline) were added to the wells. After the plates were washed, bound antibody was detected using an HRP-labeled anti-IgG antibody and a colorimetric substrate. Plates were read in a plate reader and the dose response curves were analyzed using a four-parameter logistic fit. At equilibrium, the EC50 of a saturation binding curve reflects the equilibrium binding dissociation constant (KD), where a higher value represents lower affinity, and a lower value represents higher affinity, of the antibody for the ligand. The potency of the test sample is assessed by comparing binding curves of the test samples to a reference material by the ratio of the EC50's. Potency is expressed as percent of reference material, in this case, selected to be lot #1 of the solution form of anti-huIL-23p19 mAb 13B8-b.

B1: humanized anti-human IL-23p19 monoclonal antibody 13B8-b (antibody, human IgG1, kappa, V domains shown)
VH: QVQLVQSGAEVKKPGASVKVSCKASGYIFITYWMTWVRQAPGQGLEWMGQIFPASGSADYNEKFEGRVTMTTDTSTSTAYMELRSLRSDDTAVYYCARGGGGFAYWGQGTLVTVSS
VL: DIQMTQSPSSLSASVGDRVTITCRTSENIYSYLAWYQQKPGKAPKLLIYNAKTLAEGVPSRFSGSGSGTDFTLTISSLQPEDFATYYCQHHYGIPFTFGQGTKVEIKR
notes: Full-length IgG1 kappa; It was tested as never-crystallized solution material (two lots) and as antibody re-dissolved from crystals (two lots); also called anti-huIL-23p19 mAb 13B8-b; hu13B8-b
Question: With B1 as the binder, how does the EC50 read?
Answer: The EC50 was 0.071 nM and 0.106 nM and 0.073 nM and 0.116 nM.
